Source: the supplement of paper PMC9112550, “Optimization of the antimicrobial peptide Bac7 by deep mutational scanning” (BMC Biology, 2022)
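Further: peptides expressed intracellularly from a pBAD plasmid library in pooled LB shake-flask culture, induced with 0.3% L-arabinose, DNA abundance read by NGS, three biological replicates, DESeq2 with apeglm shrinkage.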

What follows are sequences tested on Escherichia coli TOP10 (assay: shrunken log2 fold change of peptide-encoding DNA abundance (4.5 h post-induction vs induction); higher = less antimicrobial activity (less host growth inhibition)). Conditions: time post-induction: 4.5 h; library: site-saturation at positions 5, 18, 19, 20.
RRIRRRPPRLPRPRPRPMLWPRP was tested, and the “shrunken log2 fold change” value was -0.0161. RRIRRRPPRLPRPRPRPMMRPRP was tested, and the “shrunken log2 fold change” value was 0.73. RRIRRRPPRLPRPRPRPMMVPRP was tested, and the “shrunken log2 fold change” value was -0.00292. RRIRRRPPRLPRPRPRPMNPPRP was tested, and the “shrunken log2 fold change” value was 0.212. In the case of RRIRRRPPRLPRPRPRPMPHPRP, the “shrunken log2 fold change” value is reported as -0.124. RRIRRRPPRLPRPRPRPMPIPRP was tested, and the “shrunken log2 fold change” value was 0.25. For RRIRRRPPRLPRPRPRPMSEPRP, the “shrunken log2 fold change” value was 0.0166. With RRIRRRPPRLPRPRPRPMSTPRP the “shrunken log2 fold change” value was 0.231. For RRIRRRPPRLPRPRPRPMVPPRP, the “shrunken log2 fold change” value was 0.135. In the case of RRIRRRPPRLPRPRPRPMWDPRP, the “shrunken log2 fold change” value is reported as 0.164. With RRIRRRPPRLPRPRPRPNCKPRP the “shrunken log2 fold change” value was 0.155. For RRIRRRPPRLPRPRPRPNEAPRP, the “shrunken log2 fold change” value was 0.271. RRIRRRPPRLPRPRPRPNEMPRP was tested, and the “shrunken log2 fold change” value was 0.245. With RRIRRRPPRLPRPRPRPNFHPRP the “shrunken log2 fold change” value was 0.75. For RRIRRRPPRLPRPRPRPNGNPRP, the “shrunken log2 fold change” value was 0.0494. In the case of RRIRRRPPRLPRPRPRPNHGPRP, the “shrunken log2 fold change” value is reported as -0.0793. RRIRRRPPRLPRPRPRPNLTPRP was tested, and the “shrunken log2 fold change” value was -0.245. RRIRRRPPRLPRPRPRPNMRPRP was tested, and the “shrunken log2 fold change” value was 0.104. With RRIRRRPPRLPRPRPRPNPGPRP the “shrunken log2 fold change” value was -0.035. In the case of RRIRRRPPRLPRPRPRPNPQPRP, the “shrunken log2 fold change” value is reported as 0.631. With RRIRRRPPRLPRPRPRPNRVPRP the “shrunken log2 fold change” value was -0.0133. For RRIRRRPPRLPRPRPRPNSEPRP, the “shrunken log2 fold change” value was 0.381. In the case of RRIRRRPPRLPRPRPRPNSPPRP, the “shrunken log2 fold change” value is reported as -0.0118. RRIRRRPPRLPRPRPRPNTFPRP was tested, and the “shrunken log2 fold change” value was 0.085. In the case of RRIRRRPPRLPRPRPRPNWFPRP, the “shrunken log2 fold change” value is reported as -0.0681. In the case of RRIRRRPPRLPRPRPRPNYPPRP, the “shrunken log2 fold change” value is reported as 0.0594. In the case of RRIRRRPPRLPRPRPRPNYTPRP, the “shrunken log2 fold change” value is reported as -0.44. For RRIRRRPPRLPRPRPRPPALPRP, the “shrunken log2 fold change” value was 0.635. RRIRRRPPRLPRPRPRPPDWPRP was tested, and the “shrunken log2 fold change” value was 0.618. RRIRRRPPRLPRPRPRPPFCPRP was tested, and the “shrunken log2 fold change” value was 0.627. With RRIRRRPPRLPRPRPRPPFVPRP the “shrunken log2 fold change” value was 0.675. RRIRRRPPRLPRPRPRPPGFPRP was tested, and the “shrunken log2 fold change” value was 0.468. For RRIRRRPPRLPRPRPRPPGQPRP, the “shrunken log2 fold change” value was 0.422. RRIRRRPPRLPRPRPRPPHVPRP was tested, and the “shrunken log2 fold change” value was 0.915. With RRIRRRPPRLPRPRPRPPLDPRP the “shrunken log2 fold change” value was 1.24. In the case of RRIRRRPPRLPRPRPRPPLEPRP, the “shrunken log2 fold change” value is reported as 0.739. In the case of RRIRRRPPRLPRPRPRPPNCPRP, the “shrunken log2 fold change” value is reported as 0.15. For RRIRRRPPRLPRPRPRPPPEPRP, the “shrunken log2 fold change” value was 1.37. For RRIRRRPPRLPRPRPRPPPGPRP, the “shrunken log2 fold change” value was 1.05. In the case of RRIRRRPPRLPRPRPRPPPPPRP, the “shrunken log2 fold change” value is reported as 1.03. RRIRRRPPRLPRPRPRPPQDPRP was tested, and the “shrunken log2 fold change” value was 1.39. In the case of RRIRRRPPRLPRPRPRPPRLPRP, the “shrunken log2 fold change” value is reported as 1.1. RRIRRRPPRLPRPRPRPPTCPRP was tested, and the “shrunken log2 fold change” value was 0.474. With RRIRRRPPRLPRPRPRPPTIPRP the “shrunken log2 fold change” value was 0.324. In the case of RRIRRRPPRLPRPRPRPPVDPRP, the “shrunken log2 fold change” value is reported as 0.241. RRIRRRPPRLPRPRPRPPWAPRP was tested, and the “shrunken log2 fold change” value was 0.729. In the case of RRIRRRPPRLPRPRPRPPWWPRP, the “shrunken log2 fold change” value is reported as 0.862. For RRIRRRPPRLPRPRPRPQELPRP, the “shrunken log2 fold change” value was 0.158. RRIRRRPPRLPRPRPRPQERPRP was tested, and the “shrunken log2 fold change” value was -0.0784. For RRIRRRPPRLPRPRPRPQHSPRP, the “shrunken log2 fold change” value was -0.0462. In the case of RRIRRRPPRLPRPRPRPQIEPRP, the “shrunken log2 fold change” value is reported as 0.694. RRIRRRPPRLPRPRPRPQKYPRP was tested, and the “shrunken log2 fold change” value was -0.696. With RRIRRRPPRLPRPRPRPQLRPRP the “shrunken log2 fold change” value was 0.213. In the case of RRIRRRPPRLPRPRPRPQMQPRP, the “shrunken log2 fold change” value is reported as -0.205. With RRIRRRPPRLPRPRPRPQNAPRP the “shrunken log2 fold change” value was 0.0513. RRIRRRPPRLPRPRPRPQNWPRP was tested, and the “shrunken log2 fold change” value was 0.199. RRIRRRPPRLPRPRPRPQPIPRP was tested, and the “shrunken log2 fold change” value was 0.206. In the case of RRIRRRPPRLPRPRPRPQPVPRP, the “shrunken log2 fold change” value is reported as 0.299. For RRIRRRPPRLPRPRPRPQQCPRP, the “shrunken log2 fold change” value was 0.15. RRIRRRPPRLPRPRPRPQQGPRP was tested, and the “shrunken log2 fold change” value was 0.0446. In the case of RRIRRRPPRLPRPRPRPQVRPRP, the “shrunken log2 fold change” value is reported as -0.0161. RRIRRRPPRLPRPRPRPQVSPRP was tested, and the “shrunken log2 fold change” value was 0.0704. In the case of RRIRRRPPRLPRPRPRPQWNPRP, the “shrunken log2 fold change” value is reported as -0.153. With RRIRRRPPRLPRPRPRPQWYPRP the “shrunken log2 fold change” value was -0.258. RRIRRRPPRLPRPRPRPQYKPRP was tested, and the “shrunken log2 fold change” value was -0.401. For RRIRRRPPRLPRPRPRPRADPRP, the “shrunken log2 fold change” value was 0.461. In the case of RRIRRRPPRLPRPRPRPRAWPRP, the “shrunken log2 fold change” value is reported as -0.0407. For RRIRRRPPRLPRPRPRPRCLPRP, the “shrunken log2 fold change” value was 0.219. In the case of RRIRRRPPRLPRPRPRPRDLPRP, the “shrunken log2 fold change” value is reported as 0.427. For RRIRRRPPRLPRPRPRPRDSPRP, the “shrunken log2 fold change” value was -0.0748. In the case of RRIRRRPPRLPRPRPRPRDWPRP, the “shrunken log2 fold change” value is reported as 1.01. For RRIRRRPPRLPRPRPRPRFPPRP, the “shrunken log2 fold change” value was 0.676. In the case of RRIRRRPPRLPRPRPRPRGIPRP, the “shrunken log2 fold change” value is reported as 0.169. RRIRRRPPRLPRPRPRPRIIPRP was tested, and the “shrunken log2 fold change” value was 0.0728. RRIRRRPPRLPRPRPRPRKEPRP was tested, and the “shrunken log2 fold change” value was 0.4. In the case of RRIRRRPPRLPRPRPRPRLMPRP, the “shrunken log2 fold change” value is reported as 0.316. RRIRRRPPRLPRPRPRPRNEPRP was tested, and the “shrunken log2 fold change” value was 0.18. RRIRRRPPRLPRPRPRPRNQPRP was tested, and the “shrunken log2 fold change” value was -0.0577. In the case of RRIRRRPPRLPRPRPRPRPGPRP, the “shrunken log2 fold change” value is reported as 0.557. RRIRRRPPRLPRPRPRPRPMPRP was tested, and the “shrunken log2 fold change” value was 0.76. With RRIRRRPPRLPRPRPRPRPWPRP the “shrunken log2 fold change” value was 0.737. For RRIRRRPPRLPRPRPRPRQWPRP, the “shrunken log2 fold change” value was 0.169. RRIRRRPPRLPRPRPRPRRCPRP was tested, and the “shrunken log2 fold change” value was 0.615. For RRIRRRPPRLPRPRPRPRSYPRP, the “shrunken log2 fold change” value was 0.0753. For RRIRRRPPRLPRPRPRPRTMPRP, the “shrunken log2 fold change” value was 0.221. RRIRRRPPRLPRPRPRPRWKPRP was tested, and the “shrunken log2 fold change” value was -0.0516. For RRIRRRPPRLPRPRPRPSANPRP, the “shrunken log2 fold change” value was 0.326. For RRIRRRPPRLPRPRPRPSCCPRP, the “shrunken log2 fold change” value was -0.0867. RRIRRRPPRLPRPRPRPSDHPRP was tested, and the “shrunken log2 fold change” value was -0.0811. For RRIRRRPPRLPRPRPRPSDVPRP, the “shrunken log2 fold change” value was -0.374. For RRIRRRPPRLPRPRPRPSEDPRP, the “shrunken log2 fold change” value was 0.0524. In the case of RRIRRRPPRLPRPRPRPSEHPRP, the “shrunken log2 fold change” value is reported as 0.453. For RRIRRRPPRLPRPRPRPSGDPRP, the “shrunken log2 fold change” value was 0.233. RRIRRRPPRLPRPRPRPSHAPRP was tested, and the “shrunken log2 fold change” value was 0.232. For RRIRRRPPRLPRPRPRPSHSPRP, the “shrunken log2 fold change” value was -0.00512. With RRIRRRPPRLPRPRPRPSICPRP the “shrunken log2 fold change” value was 0.00217. For RRIRRRPPRLPRPRPRPSISPRP, the “shrunken log2 fold change” value was -0.774. With RRIRRRPPRLPRPRPRPSLHPRP the “shrunken log2 fold change” value was 0.114. In the case of RRIRRRPPRLPRPRPRPSLKPRP, the “shrunken log2 fold change” value is reported as 0.108. With RRIRRRPPRLPRPRPRPSLWPRP the “shrunken log2 fold change” value was 0.293. For RRIRRRPPRLPRPRPRPSMEPRP, the “shrunken log2 fold change” value was 0.0198. In the case of RRIRRRPPRLPRPRPRPSMMPRP, the “shrunken log2 fold change” value is reported as -0.216. For RRIRRRPPRLPRPRPRPSPTPRP, the “shrunken log2 fold change” value was 0.598. For RRIRRRPPRLPRPRPRPSQRPRP, the “shrunken log2 fold change” value was 0.0863. For RRIRRRPPRLPRPRPRPSSAPRP, the “shrunken log2 fold change” value was 0.421. RRIRRRPPRLPRPRPRPSTAPRP was tested, and the “shrunken log2 fold change” value was 0.297. For RRIRRRPPRLPRPRPRPSTQPRP, the “shrunken log2 fold change” value was -0.245. With RRIRRRPPRLPRPRPRPSTSPRP the “shrunken log2 fold change” value was 0.0625. For RRIRRRPPRLPRPRPRPSVLPRP, the “shrunken log2 fold change” value was -0.0526.
